We go through one molecule from patent publication US20130071357A1, “IDENTIFICATION, PROLIFERATION IN SITU, HARVESTING, SEPARATION, AND TRANSPLANTATION OF ADULT-DERIVED REGENERATIVE PLURIPOTENT TRANSITIONAL BLASTOMERE-LIKE STEM CELLS AND METHODS OF TREATMENT THEREOF” (HEYGEN, LLC, priority 2011, published 2013).

Experiment [1] relates to adult pluripotent epiblast-like stem cells. Briefly: induction of epiblast-like stem cells in culture. It is filed as cell-based, rat. To be noted: ELSCs.
The test system of experiment [2] is adult totipotent blastomeric-like stem cells. Briefly: induction of blastomeric-like stem cells in culture. It is filed as cell-based, rat. Particulars: BLSCs. The source says:
1961; Rohme 1981; Young and Black, 2005a].
FIG. 7. Blastomeric-like stem cells (BLSCs) harvested from male Sprague-Dawley out bred rat 0001 and propagated from a single cell derived by serial dilution clonogenic analysis, then genomically labeled with LacZ to synthesize the beta-galactosidase gene product. Clone designated as Scl-44beta. […] B-L is phase contrast microscopy to show unstained cells in field of view. […] Original magnification 200×.
FIG. 8. Blastomeric-like stem cells (BLSCs) harvested from male Sprague-Dawley out bred rat 0001 and propagated from a single cell derived by serial dilution clonogenic analysis, then genomically labeled with LacZ to synthesize the beta-galactosidase gene product. Clone designated as Scl-44beta.

B1: brain-derived neurotrophic factor: lineage-induction agent (protein, UniProt P23560 19-247, looked up)
Neurotrophic factor BDNF …: APMKEANIRGQGGLAYPGVRTHGTLESVNGPKAGSRGLTSLADTFEHVIEELLDEDQKVRPNEENNKDADLYTSRVMLSSQVPLEPPLLFLLEEYKNYLDAANMSMRVRRHSDPARRGELSVCDSISEWVTAADKKTAVDMSGGTVTVLEKVPVSKGQLKQYFYETKCNPMGYTKEGCRGIDKRHWNSQCRTTQSYVRALTMDSKKRIGWRFIRIDTSCVCTLTIKRGR
With B1, the “response to lineage-induction agent” value in experiment [1] and in experiment [2] was “forming cells belonging to the ectodermal lineage” throughout.
